In US20140242093, “METHODS AND COMPOSITIONS FOR MODULATING THE INNATE IMMUNE RESPONSE AND/OR MYOGENESIS IN A MAMMALIAN SUBJECT” (FRED HUTCHINSON CANCER RESEARCH CENTER, published 2014):

B1: TRIM48mut (dsDNA)
DNA 1: AGGAGTGATGATACTTTTATGAGCCGTGCAA
DNA 2: TTGCACGGCTCATAAAAGTATCATCACTCCT
B2: THE1Dmut (dsDNA)
DNA 1: CCTGTGGGAGGTACTCCTATGATGGAGGCAG
DNA 2: CTGCCTCCATCATAGGAGTACCTCCCACAGG
B3: CSF1Rmut (dsDNA)
DNA 1: CCAGGTGGAGATACTTGTATGATGGGGGCAG
DNA 2: CTGCCCCCATCATACAAGTATCTCCACCTGG

These binders were tested against DUX4-fl (Homo sapiens, UniProt Q9UBX2 SEQ:1-424) (assay: EMSA; cold mutant does not compete). Settings: tags: pCS2-DUX4-fl, TNT SP6 wheat germ.
Experimental: EMSA was performed with ³²P-labeled 31-bp oligonucleotides from endogenous genomic sequences containing the putative DUX4 binding site as probes (sequences below; only forward shown). Radiolabeled probes were incubated with in vitro translated protein generated from pCS2-DUX4-fl or pCS2-DUX4-s² vectors using the TNT SP6 Coupled Wheat Germ Extract System (Promega) according to manufacturer's instructions. To obtain supershift of protein-DNA complexes, 0.1 μg of E14-3 anti-DUX4 rabbit monoclonal antibody was added to the mixtures. For competition experiments, excess unlabeled probes of either wild-type or mutant sequences were included in the binding reaction. The gels were prepared and run as previously described (Knoepfler et al., 1999).
Electrophoretic mobility shift assay (EMSA) confirmed that DUX4-fl binds the core motifs present in both MaLR-associated and non-repeat associated sites: TRIM48 oligos—the TAATTTAATCA (SEQ ID NO:169) core sequence found near the TRIM48 gene, CSF1R oligos—the TAATTGAATCA (SEQ ID NO:171) core sequence found within the LTR of a THE1B retroelement near the CSF1R gene, and THE1D oligos—the TAATCCAATCA (SEQ ID NO:172) core sequence found within the LTR of the THE1D retroelement. […] Because the DUX4-s alternative splice form retains the N-terminal DNA-binding homeodomains, the inventors hypothesized that it would bind to the same sites as DUX4-fl. EMSA confirmed that DUX4-s specifically binds the same core binding site as DUX4-fl in vitro.

DUX4-fl, sequence (Q9UBX2 whole entry): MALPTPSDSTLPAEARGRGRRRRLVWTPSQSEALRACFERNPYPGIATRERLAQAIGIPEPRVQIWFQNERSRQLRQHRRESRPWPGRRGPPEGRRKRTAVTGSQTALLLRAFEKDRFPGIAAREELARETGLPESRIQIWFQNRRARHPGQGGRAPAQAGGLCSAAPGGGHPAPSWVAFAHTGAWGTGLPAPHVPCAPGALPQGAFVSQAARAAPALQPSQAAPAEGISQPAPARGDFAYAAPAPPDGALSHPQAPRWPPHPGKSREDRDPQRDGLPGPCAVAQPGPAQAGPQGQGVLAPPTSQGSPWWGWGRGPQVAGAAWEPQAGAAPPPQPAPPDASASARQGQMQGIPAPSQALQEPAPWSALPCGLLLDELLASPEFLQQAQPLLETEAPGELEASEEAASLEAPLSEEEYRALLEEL

Binding result, no binding:
B1
B2
B3
